How the values were obtained:
[1] = biological target: PD-1 and LAG-3 on CD4+ and CD8+ cells of patients' peripheral blood; assay: receptor occupancy by flow cytometry on patients' whole blood, CD4+ cells; Emax model
[2] = biological target: PD-1 and LAG-3 on CD4+ and CD8+ cells of patients' peripheral blood; assay: receptor occupancy by flow cytometry on patients' whole blood, CD8+ cells; Emax model
[3] = biological target: PD-1 and LAG-3 on CD4+ and CD8+ cells of patients' peripheral blood; assay: receptor occupancy by flow cytometry on patients' whole blood, CD4+ cells; Emax model of % binding against DART-I concentration
[4] = biological target: PD-1 and LAG-3 on CD4+ and CD8+ cells of patients' peripheral blood; assay: receptor occupancy by flow cytometry on patients' whole blood, CD8+ cells; Emax model of % binding against DART-I concentration

- concentration at which 90% of max RO is achieved [1]: 0.6 µg/mL
- concentration at which 90% of max RO is achieved [2]: 0.1 µg/mL
- EC50 [3]: 0.045 µg/mL
- EC50 [4]: 0.011 µg/mL
B1: DART-I (bispecific antibody, human IgG4 S228P)
chain 1: DIQMTQSPSSLSASVGDRVTITCRASQDVSSVVAWYQQKPGKAPKLLIYSASYRYTGVPSRFSGSGSGTDFTLTISSLQPEDFATYYCQQHYSTPWTFGGGTKLEIKGGGSGGGGQVQLVQSGAEVKKPGASVKVSCKASGYSFTSYWMNWVRQAPGQGLEWIGVIHPSDSETWLDQKFKDRVTITVDKSTSTAYMELSSLRSEDTAVYYCAREHYGTSPFAYWGQGTLVTVSSGGCGGGEVAACEKEVAALEKEVAALEKEVAALEKESKYGPPCPPCPAPEFLGGPSVFLFPPKPKDTLYITREPEVTCVVVDVSQEDPEVQFNWYVDGVEVHNAKTKPREEQFNSTYRVVSVLTVLHQDWLNGKEYKCKVSNKGLPSSIEKTISKAKGQPREPQVYTLPPSQEEMTKNQVSLTCLVKGFYPSDIAVEWESNGQPENNYKTTPPVLDSDGSFFLYSRLTVDKSRWQEGNVFSCSVMHEALHNHYTQKSLSLSLG
chain 2: EIVLTQSPATLSLSPGERATLSCRASESVDNYGMSFMNWFQQKPGQPPKLLIHAASNQGSGVPSRFSGSGSGTDFTLTISSLEPEDFAVYFCQQSKEVPYTFGGGTKVEIKGGGSGGGGQVQLVQSGAEVKKPGASVKVSCKASGYTFTDYNMDWVRQAPGQGLEWMGDINPDNGVTIYNQKFEGRVTMTTDTSTSTAYMELRSLRSDDTAVYYCAREADYFYFDYWGQGTTLTVSSGGCGGGKVAACKEKVAALKEKVAALKEKVAALKE
